Results on 17 substances are retold here after publication PMC3618588.

The target in one experiment is His6-JAK2 JH1 (836-1132), phosphorylated (JAK2^pY1007/pY1008) (mouse) (UniProt Q62120).
Sequence of UniProt Q62120 (Q62120 836-1132): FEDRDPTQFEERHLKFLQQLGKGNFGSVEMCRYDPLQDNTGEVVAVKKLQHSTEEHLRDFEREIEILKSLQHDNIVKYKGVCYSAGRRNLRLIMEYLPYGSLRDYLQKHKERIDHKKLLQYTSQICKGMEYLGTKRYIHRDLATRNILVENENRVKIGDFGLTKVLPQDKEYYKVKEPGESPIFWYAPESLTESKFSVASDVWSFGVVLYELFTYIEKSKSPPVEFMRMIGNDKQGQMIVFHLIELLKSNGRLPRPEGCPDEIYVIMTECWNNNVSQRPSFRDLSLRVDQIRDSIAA
With “SOCS3 A50E / elonginBC complex (from UniProt O35718 22-225; Q15370 1-118; Q15369 1-112)”, the IC50^mutant/IC50^WT, inhibition of JAK2 JH1 kinase activity was 1.1 ratio to WT.

As to “SOCS3 A50K / elonginBC complex (from UniProt O35718 22-225; Q15370 1-118; Q15369 1-112)”, the IC50^mutant/IC50^WT, inhibition of JAK2 JH1 kinase activity was 6 ratio to WT.

Turning to “SOCS3 E30A / elonginBC complex (from UniProt O35718 22-225; Q15370 1-118; Q15369 1-112)”, the IC50^mutant/IC50^WT, inhibition of JAK2 JH1 kinase activity is 23 ratio to WT.

For “SOCS3 K23A / elonginBC complex (from UniProt O35718 22-225; Q15370 1-118; Q15369 1-112)”, the IC50^mutant/IC50^WT, inhibition of JAK2 JH1 kinase activity is 1.4 ratio to WT.

As for “SOCS3 K28A / elonginBC complex (from UniProt O35718 22-225; Q15370 1-118; Q15369 1-112)”, the IC50^mutant/IC50^WT, inhibition of JAK2 JH1 kinase activity was 2.8 ratio to WT.

Turning to “SOCS3 L22A / elonginBC complex (from UniProt O35718 22-225; Q15370 1-118; Q15369 1-112)”, the IC50^mutant/IC50^WT, inhibition of JAK2 JH1 kinase activity is 1.2 ratio to WT.

As for “SOCS3 L22F / elonginBC complex (from UniProt O35718 22-225; Q15370 1-118; Q15369 1-112)”, the IC50^mutant/IC50^WT, inhibition of JAK2 JH1 kinase activity was 0.1 ratio to WT.

Turning to “SOCS3 R77A / elonginBC complex (from UniProt O35718 22-225; Q15370 1-118; Q15369 1-112)”, the IC50^mutant/IC50^WT, inhibition of JAK2 JH1 kinase activity was 1.4 ratio to WT.

As for “SOCS3 S26A / elonginBC complex (from UniProt O35718 22-225; Q15370 1-118; Q15369 1-112)”, the IC50^mutant/IC50^WT, inhibition of JAK2 JH1 kinase activity is 1 ratio to WT.

For “SOCS3 S27A / elonginBC complex (from UniProt O35718 22-225; Q15370 1-118; Q15369 1-112)”, the IC50^mutant/IC50^WT, inhibition of JAK2 JH1 kinase activity was 2.5 ratio to WT.

As to “SOCS3 S29A / elonginBC complex (from UniProt O35718 22-225; Q15370 1-118; Q15369 1-112)”, the IC50^mutant/IC50^WT, inhibition of JAK2 JH1 kinase activity was 2 ratio to WT.

With “SOCS3 T24A / elonginBC complex (from UniProt O35718 22-225; Q15370 1-118; Q15369 1-112)”, the IC50^mutant/IC50^WT, inhibition of JAK2 JH1 kinase activity is 3.3 ratio to WT.

With “SOCS3 T52A / elonginBC complex (from UniProt O35718 22-225; Q15370 1-118; Q15369 1-112)”, the IC50^mutant/IC50^WT, inhibition of JAK2 JH1 kinase activity was 10 ratio to WT.

“SOCS3 Y31A / elonginBC complex (from UniProt O35718 22-225; Q15370 1-118; Q15369 1-112)”: the IC50^mutant/IC50^WT, inhibition of JAK2 JH1 kinase activity is 6 ratio to WT.

Turning to “SOCS3 Y47F / elonginBC complex (from UniProt O35718 22-225; Q15370 1-118; Q15369 1-112)”, the IC50^mutant/IC50^WT, inhibition of JAK2 JH1 kinase activity is 80 ratio to WT.

“SOCS3^22-225 / elonginBC complex (wild type) (from UniProt O35718;Q15370;Q15369)”: the IC50^mutant/IC50^WT, inhibition of JAK2 JH1 kinase activity is 1 ratio to WT.

For another experiment the target is unchanged. This is another data set of the same source.
Consider isolated KIR peptide from SOCS1, for which the IC50 of inhibition of JAK2 kinase activity by the isolated peptide came to 100 µM.
